Data: patent US20210267939A1, “COMPOSITIONS AND METHODS FOR TREATING NAFLD/NASH AND RELATED DISEASE PHENOTYPES” (priority 2018, published 2021)

Columns and labels:
[1] = biological target: V5-tagged human ACL purified from Fao hepatoma cells (UniProt P53396)
[2] = system: BCKD E1 (an alpha2beta2 heterotetramer)
[3] = biological target: 147 kDa GST-tagged human ACL (Sigma, SRP0288) (UniProt P53396)
AKT = AKT ser473 phosphorylation in Fao hepatoma cells; format: cell-based; settings: 10 μM for 1 hour
Experimental: Cell culture studies: Fao hepatoma cells (Sigma) were cultured in RPMI-1640 (Gibco) containing 10% FBS (Sigma). […] Human embryonic kidney (HEK) 293 cells were used to visualize localization of CMV-ΔMTS-BDK-GFP and control CMV-GFP constructs by confocal microscopy. Cells were plated and transfected in a 96 well glass bottom plate that had been pre-coated with poly-D lysine solution for 1-hour at room temperature. For transfection, cells were incubated in Opti-mem containing 1.5 μl of Mirus, TransIT-293 transfection reagent and 1 μg DNA per well. After 24 hours, mitochondrial and nuclear staining was performed in live cells using Image-IT Live Mito and nuclear labeling Kit (Cell permeant MitoTracker Red CMXRos (579/599 nm) and Hoechst 33342 (350/461 nm) ThermoFisher). Confocal images were captured using a Zeiss LSM 510 inverted confocal microscope using a 405 diode for Hoechst, Argon for GFP, and HeNe 561 for MitoTracker. Images were captured in one plane using a 63× oil objective. Each wavelength was acquired separately and then consolidated after acquisition.
Immunoblotting: Tissue lysates used for immunoblotting were prepared in Cell Lysis Buffer (Cell Signaling Technologies) containing protease inhibitor tablets (Roche), phosphatase inhibitor cocktails 2 and 3 (Sigma), and 10 mM PMSF. […] Immunoblots were developed using a Li-Cor Odyssey CLx and quantified using the Li-Cor software.

V5 tagged human BDK purified from Fao hepatoma cells
ACL phosphorylation on ser455 measured by immunoblot after mixing of the purified proteins with ATP [1]: This study confirmed that BDK specifically phosphorylates ser455 of the V5-tagged human ACL

40 kDa catalytic subunit of bovine PKA (Promega, V5161)
32P phosphorylation of BCKDH (purified proteins, SDS gel, autoradiograph) [2]: PKA caused a lesser, but still clear increase in BCKDH phosphorylation | incorporation of [gamma-32P]-phosphoryl group into ACL (purified proteins, SDS gel, autoradiograph) [3]: PKA caused a clear increase in ^32P labeling of ACL

O=c1[nH]c2ccccc2n1C1CCN(Cc2ccc(-c3[nH]c4cc5ncnc5cc4nc3-c3ccccc3)cc2)CC1 [A6730]
phosphorylation of ser473 on AKT (AKT): reduce

MBP-BDK (maltose-binding protein-tagged mature BDK lacking the mitochondrial-targeting pre-sequence; amino acid residue 31-382)
32P phosphorylation of the purified e1a subunit of BCKDH (purified proteins, SDS gel, autoradiograph) [2]: MBP-BDK also caused a robust increase in phosphorylation of the purified e1a subunit of BCKDH | incorporation of [gamma-32P]-phosphoryl group into ACL (purified proteins, SDS gel, autoradiograph) [3]: MBP-BDK also caused phosphorylation of ACL, albeit to a lesser extent than PKA
